Here are results for 41 sequences from the nanobody polyreactivity screen of Harvey et al. (2022).

The data set is described as follows: yeast display, Sf9 membrane polyspecificity reagent, FACS + sequencing; frameworks hold sequencing errors. Put shortly:
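Galactose induction of a Saccharomyces cerevisiae BJ5465 synthetic nanobody display library ran 36–48 hours. The cells were then stained for 1 hour at 4 °C with 10% biotinylated, detergent-solubilized Sf9 membrane reagent, pulled down on streptavidin microbeads and FACS-sorted into low and high (top ~1%) gates on expression and reagent-binding fluorescence. Labels for polyreactivity follow the gate of origin.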
As to “QVKLVESGGGLVQAGRSLRLSCAASGFTFSANTMGWYRQAPGKERELVAAITRGGRTYYADSVKGRFTISRDNAKNTVYLQMNSLKPEDTAVYYCAKRATWYTVTREGYWGQGTQVTVTS”, the “polyreactivity (PSR sort gate)” value is recorded as “high polyreactivity”.

Consider “QVKLVESGGGLVQAGVSLRLSCAASGRIFVFYAMGWYRQAPGKERELVAAITASSTRTYYADSVKGRFTISRAHAKNTVYLQMNSLKPEDTAVYYCARDIRQYILYGRGDYWGQGTQVTVSS”, for which the “polyreactivity (PSR sort gate)” value was “low polyreactivity”.

Consider “QVKLVESGGGLVQSGGSLRLSCAAYGRIFATNAMGWYRPAPGKERELVATITRSAGRTYYADSVKGRFTISRVKAKHSVYLQMNRLKPEDTAVFYFAASYWDTGPGYREYDYWGEGTQVTVSS”, for which the “polyreactivity (PSR sort gate)” value is “low polyreactivity”.

Take “QVKLVESGRGLVQAGGSLRLSCAASGRIFTNNAMGRYRPATGKERELVAAINVSGGRTYYADSVKGRFTISRENAKNTVYLQMISLKPDDTAVYYCNKVKETYMDYWGQGTQVTVSS”: the “polyreactivity (PSR sort gate)” value was “high polyreactivity”.

“QVKLVETGGGLVQAGGSLRLSCAASGSTFEHYAMGWYRQAPGKERELVAAISYTGGNTYYAYSVKGRFTISRDNAKNTVYLQMNSLKPEDTAVYYCAAAPLYYHRRGYYYWGQGTQVTVSS”: the “polyreactivity (PSR sort gate)” value is “high polyreactivity”.

Regarding “QVKVVESGGGLVQAGGSLRLSCAASGSIYVGYAMGWYRQAPGKERELVAAISWSGDSTYYADSVKGRFTISRDNAKNTVYLQMNSLKPEDTAVYYCAVDYAEIGPRREFEYDYWGQGTQVTVSS”, the “polyreactivity (PSR sort gate)” value is on record as “low polyreactivity”.

As to “QVLLQESGGGLVQAGGSLRLGCAASGTISPAYYMGRYHQAPGKEREFVAAITYGTNTYYADSVKGRFTISRDNAKNNVYLQMNSLKPEDTAVYYCSASAGYNGAHDYWGQGTQVTVSS”, the “polyreactivity (PSR sort gate)” value is “low polyreactivity”.

As to “QVLLQESGGGLVQAGGSLRLSCAARGNIFSAGGMGWYSQAPVNVRELVAGIGTGTSTNYADSVKGRFTISRDNAKNTVYLQMNSLKPEDTAVYYCASGYYSGLSHWFWGQGTQVTVSS”, the “polyreactivity (PSR sort gate)” value is reported as “low polyreactivity”.

For the sequence “QVLLQESGGGLVQAGGSLRLSCAASGTISTDIRMGWYRLAPGKEREFVASIDGCSTTYYADSVKGRFTISRDNAKNTVFLQMNSLKPEDTAMYYCAAREATEFYLYYWGQGTQVTVSS”, the “polyreactivity (PSR sort gate)” value is “low polyreactivity”.

For the sequence “QVLLQESGGGLVQAGGSLRLSCEAIGNIFSAGGMGWYRQAPVNERELVAGIGTGTSTNYAESVKGRFTISRDNAKNTVYLQMNSLNPEDTAVYYCAAAYYSGLSHWYWGQGTQVTVSS”, the “polyreactivity (PSR sort gate)” value is “low polyreactivity”.

With “QVLLQESGGGLVQEGGSLRLTCAASGNIFSAGGMAWYRQATVNERELVAGIGTGTSTNYADSVKGRFTISRDNAKNTVYLQMNSLKPEDTAVYYCAAAYYSGLSHWYWGQCTQVTVSS”, the “polyreactivity (PSR sort gate)” value is given as “low polyreactivity”.

For “QVLLQESGGGLVQPGGSLLLSCAASGNIFSAGGMGWYRQAPVNEPELVAGIGTGTSTNYADSVKGRFTISRDNAKNTVFLQMNSLNPEDTAVYYCAAAYYSGLSHWYWGQGTQVTVSS”, the “polyreactivity (PSR sort gate)” value is on record as “low polyreactivity”.

For the sequence “QVLLVDSGGGLVQAGGSLRLSCAASGRIFGPYTMARYIQAPGPERELVAAISWSGGSTYYADSVKGRFTISRDNAKNNVFLQMNSLKPEDSAVYYCNAYHPFPQYEGGSWGQGTQVTVSS”, the “polyreactivity (PSR sort gate)” value is given as “low polyreactivity”.

Turning to “QVLLVDSGGGLVQAGGSLSLICAASGFTFYYNAMGWYRQAPGKERELVAGISGRGGTTYYADSVNGRFTISRDNAKNTVYLQMNSLKPEDTAVYYCAARKVRARSKFEYWGQGTQVTVSS”, the “polyreactivity (PSR sort gate)” value is reported as “high polyreactivity”.

On to “QVLLVEAGGGLVHAGGSLRLSCAASGLIFGYYAMRWYRQAPWKERELVAAISFSGGSSYYADSVKGRFTISRDNAKNTDSLQMNSLKPEDTAVYYCAADLDGSSEYEYWGQGTQVNVSS”, for which the “polyreactivity (PSR sort gate)” value is recorded as “low polyreactivity”.

Take “QVLLVESGGCLVQEGGSLRFSCAASGFIFAYYAMGWYRPAPGKERELVAAITSDGATYYADSVKGRFTISRDNAKNTVYLQMNSLKPEATAVYYCNTYWLLRPGYIYWGQGTQVTVSS”: the “polyreactivity (PSR sort gate)” value is reported as “high polyreactivity”.

In the case of “QVLLVESGGGLVQAGGILRLSCAASGRILPFNAMGWYRQAPGKAREFVAANSRVSGRTYYADSVKGRFTISRDNAKNTVYLQMNSLKPEDTAVYYCATDTYSYGYEYWGQGTHVTVSS”, the “polyreactivity (PSR sort gate)” value is recorded as “high polyreactivity”.

On to “QVLLVESGGGLVQAGGSLRLSCAASGFIFVDYAMGWYRQAHGKERELVAAITSSGDRTYYADSVKGRFTISRDNAKNTVYLQMNSLKPEDTAVYYCNADWSTACYTSYDYWGQGTQVTVSS”, for which the “polyreactivity (PSR sort gate)” value is listed as “low polyreactivity”.

For the sequence “QVLLVESGGGLVQAGGSLRLSCAASGFTFNRYDMVWYRQAPGTEREKVARITRGGSTKYADSVKGRFTISRDNAKNTVYLQMKSLKPEDTPVSYCAAGPVKRYVVQGNYWGQGTQVTVSS”, the “polyreactivity (PSR sort gate)” value is listed as “high polyreactivity”.

Regarding “QVLLVESGGGLVQAGGSLRLSCAASGGTFLFYGMGWYRQAPGKERELVAVITWSGGSTYYADSVKGRFTISRDNAKNTVNLQMNSLKPEDTAVYYCNAANTGSPDYQSIGYNFNYWGQGTQVTVSS”, the “polyreactivity (PSR sort gate)” value is “low polyreactivity”.

For “QVLLVESGGGLVQAGGSLRLSCAASGIILGDNARGWYRQAPGKDRVLDATISTSGVSTYYADSVKGRFTISRDNAKKTVNFQMNSLKPQDTAVYYCAASNEVPWRFPDDSWGQGTQVTVSS”, the “polyreactivity (PSR sort gate)” value is “low polyreactivity”.

For the sequence “QVLLVESGGGLVQAGGSLRLSCAASGRTFARNTMGWYRQAPGKERELVAGITSTGSTNYADSVKGRFTISRDNAKNTVYLQMNSLKPEDTAVYYCNARRYRPGSQYGYDYWGQGTQVTVSS”, the “polyreactivity (PSR sort gate)” value is recorded as “high polyreactivity”.

In the case of “QVLLVESGGGLVQAGGSLRLSCAASGRTLPPNAMGWYRQAPGKERELGAGITWSGGSTYSADSVKGRFTISRDNAKNTVYLQMNSLKPEDTAVYYCAASRSFPGYGLYYYWGQGTQVTVSS”, the “polyreactivity (PSR sort gate)” value is given as “low polyreactivity”.

As for “QVLLVESGGGLVQAGGSLRLSCAASGSTFPGNAMGWYRQAPGKERELVARINDGADTNYADSVKGRFTISRDNAKNTVNLQMNSLKPEDTAVYYCATPYYDGRTHFDSWGQGTQVTVSS”, the “polyreactivity (PSR sort gate)” value was “low polyreactivity”.

Take “QVLLVESGGRLVQAGGSLRLSSAASGRTLNINAMGWYRQAPGKERELVAVISFNGGGTYYADSVKGRFTISRDNGKNTVYLQMNSLKPEDTAVYYCNAVRDRYASDYWGQGTQVTVTS”: the “polyreactivity (PSR sort gate)” value is reported as “low polyreactivity”.

Consider “QVMLVESGGGLVQAGGSLRLSCAASGSIFKSNAMGWYRQAPGKERELVAAITRSGGSTYYADSVKGRFTISRDNAKYTVYLQMNSLKPEDTAVYYCARRPGKGNNYWGKGTQVTVSS”, for which the “polyreactivity (PSR sort gate)” value was “high polyreactivity”.

“QVNHVESGGGLVQAGGSLRLTCAASGRTFSRYVMGWYRQSPGKERELVAAISRTGGRTYYADSVKGRFTISRDNAKNSVYLQMNSLNPEDTAVYYCYAGTVLISTYDYWGQGTQVTLSS”: the “polyreactivity (PSR sort gate)” value was “high polyreactivity”.

In the case of “QVNLEESGGGLVQAGVILRLSSAASGSIFYRNAMGWYRQAPGKEREWVAAISSGGSTYYADSVKGRFTISRDNAKNTVYLQMNSLKPEETAVYYCAKDAHIWGYRDYEYWGLGTQVTVSS”, the “polyreactivity (PSR sort gate)” value was “high polyreactivity”.

In the case of “QVNLVDSGGGLVQAGGSLRLSCAASGSTFRNNAMGWSRQAPGKERELVAVITGDGGSTYYADSVKGRFTISRDNAKNTVYLQMNSLKPEDTAVYYCNARSIRYYRFRLRFGYWGQGTQVTVSS”, the “polyreactivity (PSR sort gate)” value was “low polyreactivity”.

As to “QVNLVESGVGLVQAGVSLRLSCAASGRIFQYYAMGWYRQATGKERELVAAISRSGGSTYYADSVKGRFTISRDNANNTVYLQMNSLKPEDTAVYYCAKVYRGFSYGYCGQGTQVTVSS”, the “polyreactivity (PSR sort gate)” value is listed as “high polyreactivity”.

For “QVPLVASGGGLVQAGGSLRLSCSASGRTFQYNAMGCYRQAPGKERELVAAITKRGTSTYFADSVKGRFTISRDNAKNTVYLQMNRLIPEDTAVYYCAALEGSLTGWQTYDYWGQGTQVTVSS”, the “polyreactivity (PSR sort gate)” value is listed as “low polyreactivity”.

For “QVPLVDSGGGLVQAGGSLRLSCAASGRSYGIYAMGWYIQAPGKERELVASITGRGGSTYYADSVKGRFTISRDNAKNTFYLQKNSLKPDDTAVYFCAARDRPYVHYSGLDYWGQGTQVTVSS”, the “polyreactivity (PSR sort gate)” value is recorded as “high polyreactivity”.

For “QVPLVESGGGLVHAGGSLRLSCAASGIILHDNTMGWYRQAPGKERELVAAITSDGSTNYADSVKGRFTISSDNAKNTVYLQMNSLKPEDTAVYYCNTDDGPYTEFDYWRQGTQVTVSS”, the “polyreactivity (PSR sort gate)” value is on record as “low polyreactivity”.

Consider “QVPLVESGGGLVQAGGSLRLICAASGRIFYRYAMVWYRQAPGKERELVATISRSGGSTNYADSVKGRFTISRDNAKNTVYLQMNSLKPEDTAVYYCNARYLSTRSGDYWGQGTQVTVSS”, for which the “polyreactivity (PSR sort gate)” value is reported as “high polyreactivity”.

“QVPLVESGGGLVQAGGSLRLSCAACGFIFGSYSMGWYRQAPGKERELVAAITSDGNTDYADSVKGRFTISRDNAKNTVYLQMNSLKPEDTAVYYCATDWVDHYDYWGQGTQVTVSS”: the “polyreactivity (PSR sort gate)” value is given as “low polyreactivity”.

Turning to “QVPLVESGGGLVQAGGSLRLSCAASGRTFVGYAMGWSSQAPGKDRELVARITGRSGSTYYADSVKGRFTISRDNAKNTVYLQMNSLKTEDTAVYDCAKRITYYYPGYDDWGQGTQVTVAS”, the “polyreactivity (PSR sort gate)” value was “low polyreactivity”.

As for “QVPLVESGGGLVQAGGSLRLSCAASGRTFWNYAMGWYRPAPGKERELVAVSRFSDGSTYYADSVKGRFTISRDNAKNTVYLQMNSLKPEDTAVDDGAAKGPRRWGSGFDYWGQGTQVTVSS”, the “polyreactivity (PSR sort gate)” value is given as “low polyreactivity”.

Turning to “QVPLVESGGGLVQAGGSLRLSCAASGSTFYTYAMGWYRQAPGKERELVATISRGGGRTYYADSVKGRFTISRDNAKYTVYLQMISLKPEDTAVYYCAARLYSSSYNSEQYYYWGQGTQVTVSS”, the “polyreactivity (PSR sort gate)” value is on record as “high polyreactivity”.

Turning to “QVPLVESGVGLVQAGGSLRLSCAASGSTFTIYAMGWYREAPGKERELVAAITWNGGSTYYADSVKGRFTISRDNAKKTVYLQMNSLKPEDTAVYYCADDYYWYWDLYDYWGQGTQVTVSS”, the “polyreactivity (PSR sort gate)” value is reported as “high polyreactivity”.

On to “QVPLVKSGAGFVQAGGILRLSCAASGRIFPFYVNGLARQAAGQERELVATINWSGGSTYYADSVKGRFTISRDNAKNTVYLQMNSLKPADTAVYYCAAAGIGGGGWGQGTQVTVSS”, for which the “polyreactivity (PSR sort gate)” value is “low polyreactivity”.

Consider “QVQFVESGGGLVQAGGSLRLSCAASGSTFQGNAMGWYRQAPGKERELVAAISRSGGRTYYADSVKGRFTISRDNAKNTVYLQMNSLKPEDTAVYYCAADAYTGDIPYWWPWNNEYDYWGQGTQVTVSS”, for which the “polyreactivity (PSR sort gate)” value is reported as “low polyreactivity”.
